# According to the nanobody polyreactivity screen of Harvey et al. (2022):
# Test: yeast display, Sf9 membrane polyspecificity reagent, FACS + sequencing; frameworks hold sequencing errors
# In short: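 After 36–48 hours of galactose induction, yeast (Saccharomyces cerevisiae BJ5465) displaying a synthetic nanobody library were stained at 4 °C for 1 hour with 10% biotinylated, detergent-solubilized Sf9 membrane reagent. Streptavidin microbeads enriched the stained cells before FACS sorting into low and high (top ~1%) gates on anti-HA and streptavidin fluorescence. Each clone's polyreactivity label reflects its gate of origin.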
row,Sequence,polyreactivity (PSR sort gate)
1,QVQLVESGGGLVQAGGSLRLSCAASGRIFSTYVMGWYRQAPGKERELVAAIRNRGGSTYYADSVKGRFTISRDNAKNTVYLQMNSLKPEDTAVFYCAAEYSYRYRVSMDYWGQGTQVTVSS,high polyreactivity
2,QVQLVDSGGGLVQAGVSLRISCAASGSTFYANAMGWYRQAPGKERELVATITSSGTSTYYGDSVKGRFTISRDNAKNTFYLQMNSLKPEDIAVYYCAAEYSLLYWEFDYWGQGTQVTVSS,low polyreactivity
3,QVQLVESGGGLVQAGGSLRLSCAASGSTFSTNAMGWYRQAPGKERELVARISAGRTNYADSVKGRFTISRDNAKNTVYLQMNSLKPEDTAVYYCNADYQYNRYSRVVGGHYYWGQGTQVTVSS,low polyreactivity
4,QVQLVESGGGLVQAGGSLRLTCAASGSIFSYNVMGWYRQAPGKERELVAVITGSGGSTYYADSVKGRFTISRDNAKNTVYLQMYSLKPEDTAVYYCAATYSGWQWYETYYYWGQGTQVTVSS,low polyreactivity
5,QVQLVESGGGLVKAGGSLRLSCAASGFIFGYNDMGGYRQAPGKERELVAAITSRGDRTYYADSVKGRFTISRDNAKNTVYLQMNSLKPEDTAVYYCAAESQAYSLYWGQGTQLTVSS,high polyreactivity
6,QVLLVESGGGLVQAGGSLRLSCAPSGSIFDYYTMGWYRQAPGKERELVAAISSDGSTNYADSVKGRFTISRDNAKNTVYLQMNTLKPEDTAVYYCADSTYRFYYYLKRGYWGQGTKVTVSS,low polyreactivity
7,QDQLVESGGGLVQAGGSLRLSCAASGRTFDNYAMGWYRQAPGKERELVARITDTGGSTYYADSVKGRFTISRDNAKNTVYLQMNSLKPEDTAVYYCAADSYPFAWYWLYYYWGQGTQVTVSS,low polyreactivity
8,QVQLVESGGGLVQAGGSLRLSCAASGSIFTYNTMGWYRQAPGKERELVATISWSGGRTYYADSVKGRFTISRDNAKNTVYLQMNSLKPEDTAVYYCAAGYYYGYPPRDYWGQGSQVTVSS,high polyreactivity
9,QVQLVESGGGLVQAGGSLRLSCAASGLTFVTYVMGWYRQAPGKERELVAAISYSGGSTYYADSVKGRFTISRDNAKNTVYLQMNSLKPEDTAVYYCAAEWYGYQEDDYRGQGTQVTVSS,low polyreactivity
10,QVQLVESGGGLVQAGGSLRLSCAASGGIFERNDMGWYRQAPGKERELVAGISSVGSTNYADSVKGRFTISRDNAKNTVYLQMNSLKPEDTAVYYCAAGYSRAHDYWGQGTQVTVSS,low polyreactivity
11,QVQLVESGGGLVQAGGSLRLSCDASGSTFPSYTMGWSRQAPGKERELVAVIRLSSGSTYYADSVKGRFTISRDNAKNTVYLQMNSLKPEDTAVYYCNTGRYHYFPNYWYDYWGQGTQVTVSS,low polyreactivity
12,QVQLVESAGGLVQAGGSLRLSSAASGRTFIVYAMGWYRQARGKERELVAGITRGSTNYADSVKGRFTISRDNAKNTVYVQMNCLKPEDTAVYYCAARWQWLNGYYYWGQGTQVTVSS,high polyreactivity
13,QVQLVESGGGLVQAGGSLRLSCAASGFTFLLYAMGWYRQAPGKERELVAAITWSTGNTYYADSVKGRFTISRDNAKNTVYLQMNSLKPEDTAVYYCYAEYLVITWYGGVEFDYWGQGTQVTVSS,low polyreactivity
14,QVQLVESGGGLVQAGGSLRLSCAASGFTIYHNAMGWYRQAPGKERELVAAISSSGDSTYYADSVKGRFTISRDNAKNTVYLQMNSLKPEDTAVYYCNDYFYYLSLYYYYWFNYDYWGQGTQVTVSS,low polyreactivity
15,QVQLVESGGGLVQAGGSLRLSCAASGSNFYFYAMGWYIQAPGKERELVADITWSGGSTYYADSVKGRFTISRDNAKNTVYLQMNSLKREDTAVYYCATDSWFGLEYWGQGTQVTVSS,high polyreactivity
16,QVQLEDSRVGLVQAVGILRLSCASSGSTIDDNVMGWYRQAPRNERELVAAICSSGGSPYYADSVKGRFTISRDNAKNTDYLLMNSLKPEDTAVYYCNAVYFRLWGYYDRRSYNYWGQGTQVTVSS,low polyreactivity
17,QVQLVESGGGLVQAGGSLRLSCAASGLTFKYNAMGWYRQAPGKERELVAGISWSTSSTYYADSVKGRFTISRDNAKNTVYLQMNSLKPEDTAVYYCAVYTITGRVLRQGPLYRHYYWGQGTQVTVSS,high polyreactivity
18,KVQLVESGGGLVQAGGSLRLSCAASGSIFYYYAMGWYRQAPGKERELVAAISERGAYVLRRPVKGRFTISRDNAKNTVYLQMNSLKPEDTAVYYCAVGFNFQGWRYDYWGQGTQVNVSS,high polyreactivity
19,QVQLVESGGGLVQAGGSLRLSCAASGRIIPLNAMGWYRPAPGKERELVAAISYDGCTYYADSVKGRFTISRDNAKNTVYLQMNSVKPEDTAVYYCAARGSYRGPYNVEYDSWGQGTQVTVSS,low polyreactivity
20,QVQLLESGGGLVQAGGSLRLSCAASGIIFVRYVMGWYRQAPVKERELVAAINWSGGSTYYADSVKGRFTISRDNAKNTVYLQMNSLKPEDTAVYYCAAGSARDDDYWGQGTQVTVSS,high polyreactivity
21,QVQLVESGGGLVQAGGSLRLSCAASGFTFRGYDMGWYRQAPGKERELVAAISGGVSTNYADSVKGRFTISRDNAKNTVYLQMNSLKPEDTAVYYCAAVPVSAGYSSIFDYWGQGTQVTVSS,low polyreactivity

row,Sequence,polyreactivity (PSR sort gate)
1,QVQLQESGGVQAGGSLRLSSAASSYISRSDVMGWYRQAPGKERELVATINNGTITYYADSVKGRFTISRDNAKNTVYLQMNSLKPEDTAVHYFAVVQSDTDSLYYWGHGTQVTVSS,low polyreactivity
2,QVQLVESGGGLVQAGGSLRLSCAASGRIFPWYTMGWYRQAPGKERELVAAITSGGNTDYADSVKGRFTISRDNAKNTVYLQMNSLKPEDTAVYYCAAGGYPGTTYYGYDYWGQGTQVTVSS,low polyreactivity
3,QVQLVESGGGLVQAGGSLRITCAASGSIFGTNAMGWYRQAPGKERELVAAIDGGSTTYYADCVKGRFTISRDNAKNTVYLQMNSLKPEDTAVYYCAADGTRYLNYEGYAGYEYWGQGTQETVSS,low polyreactivity
4,QVQLVESGGGLVQAGGSLRLSCAASGSIFDPYAMGWYRQAPGKERELVAAITASGSSTYYADSVKGRFTISRDNAKNTVYLQMNSLKPEDTAVYYCAADRANWEYLLSWLGYDYWGQGTQVTVSS,low polyreactivity
5,QVQLVESGGGLVQAGCSLRLSCAASGRTFCYNSMGLYRQAPGKERELVAAISTSGGSTYYADSVKGRFTISRDNAKNTVYLQMNSLKPEDSAVYSCAADSHRSFSLYAYDSWGLGTQVTVSS,low polyreactivity
6,QVQLVESGGGLVQAGGSLRLSCAASGYSFYYYAMVWYRQAPGKERELVAAITSGDSTYADSVKGRFTISRDNAKNTVYLQMNSLKPEDTAVYYCNRDTDYGFDYWGQGTQVTVSS,low polyreactivity
7,QVQLVESGGGLVQAGGSLRLICAASGRIFYYNAMGWYRQAPGKERELVAVITRSGGRTFYADSVKGRFTISRDNAKNTGYLQMNSLKPEDTAVYYCAARYRYYPVTTRGYYWGQGTQVTVSS,high polyreactivity
8,QVQLVESGGGLVQAGGSLRLSCAASGRTFLLYAMGWYRQAPGKERELVAAISSGGSTYYADSVKGRFTISRDNAKNTVYLQMNSLKPEDTAVYYCNAVYQHLASEYDYWGQGTQVTVSS,low polyreactivity
9,QVQLLETGGGLVQAGGSLRLSCAASGLIFYYNVMGWYIQAPGKERELVASISYSSTRTYYADSVKGRFTISRDNAKNTVYLQMNSLKPEDTAVYYCNAVIRNSWIRGYWGQGTQVTVSS,low polyreactivity
10,QVQLVESGRGLVQAGGRLRLSCAASGFTFNRYTMGGYRQAPGKEREFVASITRSGGSTYYADSVKGRFTISRDNAKNTVYLQMNSLTPEDTAVYYCAPVYQYSSRYDHWGQGTQVTVSS,high polyreactivity
11,QVQLVESGGGLVQAGGSLRLSCAASGSIFYDYVMGWYRQAPGKERELVAAITRGGRTYYADSVKGRFTISRDNAKNTVYLQMNSLKPEDTAVYYCNAGRHQGYDWGQGTQVTVSS,high polyreactivity
12,QVQLVESGGGLVQAGGSLRLSCAASGRIFGPYTMGWYRQAPGKERELVATISYSGSTTYYADSVKGRFTISRDNAKNTVYLQMNSLKPEDTAVYYCNAQYYVFITFDYWGQGTQVTVSS,high polyreactivity
13,QVQLVESGGGLVQAGGSLRLSCAASGSTFRKYAMGWYRQAPGKERELVAAISKSGGSTYYADSVKGRFTISRDNAKNTVYLQMNSLKPEDTAVYYCNARKRTKLSYPKFDYWGQGTQVTVSS,high polyreactivity
14,QVQLVESGGGLVQAGGSLRLSCAASGSIFALYAMGWSRQEPGKEREFVAAISYRGGRTYYADSVKGRFTISRDNAKNTVYLQMNSLKPEDTAVYYCDTDFPGKFDYWGQGTQVTVSS,low polyreactivity
15,QVQLVESGGGLVQAGGSLRLSCAASGSILRLYAMGWYRQAPGKERELVAAISSGGSTYYADSVKGRFPISRDNAKNTVYLQMNSLKPEDTAVYYCAAGVFWSWRYAYDYWGKGTQVTVSS,low polyreactivity
16,QVQLVESGGGLVQAGGSLRLSCAASGITFYYNAMGWYRQAPGKERELVATINDSDGSTYADSVKGRFTISRDNAKNTVYLQMNSLKPEDTAVYYCNAQTRAGYYFGYGYWGQGTQVTVSS,low polyreactivity
17,QVQLVESGGGLVQAGGSLRLSCAASGRTFRPYAMGLYRQEPGKERELVAAITSGGSTYYADSVKGRLTFSRDNAKYTVYLQMNSLKTEDTAVYYCNAKYYYQPPYDYWVQGTQVTVSS,low polyreactivity
18,QVQLVESGGGLVQAGGSLRLSCAASGIISGRNTMGWFRLARGKERELVAAISGSGGSTHYADSVKGRFPSSRDNAKNTVYLQSNSLKPEDTAVYYCAADTAYVYSMDYWGQGTQVTVSS,high polyreactivity
19,QVQLVESGGGLVQAGGSLRLICAASGSTYSYYAMAWYRQAPGKERELVAAINSSGGSTYYADSEKGRFTISRDKAKNTVYLQMNSLKPEDTAVYYGAAARRRTGVRMDYWGQGTQVTVSS,high polyreactivity
20,QVQLVESGGGLVQAGGSLRLSCAASGFISGSNVMGWYRQAPGKERELVAAINWSGDNTYYADSVKGRFTISRDNAKNTVYLQMNSLKPEDTAVYYCNADVYSYATPEMDYWGQGTQVTVSS,low polyreactivity
